# Results: patent publication US20230322924A1 (Janssen / Centocor, published 2023)
# B1: C33B909 (antibody, V domains shown)
# VH: EVQLVESGGGLVQPGRSLRLSCVASGFTFDDYAIHWVRQAPGKGLEWVSGLSWNGGNIGYADSVKGRFTISRDNAKNSLYLQMNSLKTEDTAFYYCTKDTPYGDYFDYWGQGTLVTVSS
# VL: DIQMTQSPSSVWASVGDRVTITCRASQGISSWLAWYQQQPGKAPNLLIYRSSSLQSGVPSRFSGSGSGTDFTLTISSLQPEDFATYYCQQDNSFPYTFGQGTKLEIK
# notes: OMNIMouse-derived anti-CD33 mAb; same V regions as C33B901; The OMNIMouse mAbs were cloned into both IgG1 and IgG4 PAA; also called C33H249/C33L115
# B2: C33B910 (antibody, V domains shown)
# VH: EVQLVESGGGLVQPGRSLRLSCAGSGFTFDDYAIHWVRQAPGKGLEWVSGLSWNGGNIGYADSVKGRFTISRDNAKNSLYLQLNSLKTEDTAFYYCAKDSPYGDYFDYWGQGTLVTVSS
# VL: DIQMTQSPSSEWASVGDRVTITCRASQGISSWLAWYQQKPGKAPKLLIYGASSWQSGVPSRFSGSGSGTDFTLTISSLQPEDFATYYCQQDNSFPYTFGQGTKLEIK
# notes: OMNIMouse-derived anti-CD33 mAb; same V regions as C33B902; also called C33H250/C33L116
# B3: C33B54 (antibody, IgG1, V domains shown)
# VH: QVQLQQSGPGLVKPSQTLSLTCAISGDSVSSNSAAWNWIRQSPSRGLEWLGRTYYRSKWYNDYAVSVRSRITINPDTSKNQFSLQLNSVTPEDTAVYHCARETMFRGLMDYWGQGTLVTVSS
# VL: SYVLTQPPSVSVAPGQTARITCGGSNIGSKSVHWYQQKPGQAPVMVVYDDSDRPSGIPERFSGSNSGNTATLTISRVEAGDEADYYCQVWDSSSDVVFGGGTKLTVL
# notes: huIgG1 F405L; also called C33F59; C33H44/C33L10
# B4: C33B89 (antibody, IgG1, V domains shown)
# VH: QVQLQQSGPGLVKPSQTLSLTCAISGDSVSSNSAAWNWIRQSPSRGLEWLGRTYYRSKWYNDYALSVQSRITINPDTSKNQFSLQLNSVTPEDTAVYYCAREVAVAASFDYWGQGTLVTVSS
# VL: SYVLTQPPSVSVAPGQTARITCGGNNIGSKSVHWSQQKPGQAPVLVVYDDSDRPSGIPERFSGSNSGNTATLTISRVEAGDEADYYCQVWDSNSDHVVFGGGTKLTVL
# notes: huIgG1 F405L; also called C33F94; C33H90/C33L51
# B5: C33B107 (antibody, IgG1, V domains shown)
# VH: EVQLLESGGGLVQPGGSLGLSCAASGFTFSGYAMSWVRQAPGKGLNWVSAIDYSGNDTYYADSVKGRFTISRDNSKNTLYLQMNSLRAEDTAVYYCAKESQLLHGLFEHWGQGILVTVSS
# VL: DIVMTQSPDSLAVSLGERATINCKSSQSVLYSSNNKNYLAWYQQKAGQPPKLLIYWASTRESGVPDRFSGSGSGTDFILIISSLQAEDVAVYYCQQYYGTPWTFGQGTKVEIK
# notes: huIgG1 F405L; also called C33F112; C33H68/C33L17
# B6: C33B88 (antibody, IgG1, V domains shown)
# VH: QVQLVQSGSELKKPGASVKVSCKASGYTLTRSAMNWVRQAPGQGLEWMGWINTNTGNPTYAQGFTGRFVFSLDTSVNTAYLLISSLKTEDTAVYYCASDILPGYHEDYWGQGTLVTVSS
# VL: QSALTQPASVSGSPGQSITISCTGINSDVGSYDLVSWYQQHPGKAPKLLIYDGSERPSGVFGRFSGSKSDNTTSLTISGLQAEDEAAYYCCSYEVTTTYVVFGGGTKLTVL
# notes: huIgG1 F405L; also called C33F93; C33H88/C33L61
# B7: C33B96 (antibody, IgG1, V domains shown)
# VH: EVQLVESGGGLVQPGGSLRLSCAASGFTFSSYWMTWVRPAPGKGLEWVANIKRDGGEKYYVDSVKGRFTISRDNAANSLYLQMNSLRVEDTAVYYCARPFYDHFDYWGQGTLVTVSS
# VL: SYVLTQPPSVAVAPGQTARITCGGSNIGKISVHWYQQKAGQAPVLVVHDDRARPSGIPERLSGSNSGTTATLTISRVEVGDEADYYCQVWNSSSVHPVFGGGTKLTVL
# notes: huIgG1 F405L; also called C33F101; C33H99/C33L37
# Tests used:
# Human CD33 full length = molecular target: T1, Human CD33 full length (human, UniProt P20138 18-364); experiment: flow cytometry on HEK293F cells expressing human CD33
# T1 construct: also called huCD33
# T1 sequence (P20138 18-364 limits assumed): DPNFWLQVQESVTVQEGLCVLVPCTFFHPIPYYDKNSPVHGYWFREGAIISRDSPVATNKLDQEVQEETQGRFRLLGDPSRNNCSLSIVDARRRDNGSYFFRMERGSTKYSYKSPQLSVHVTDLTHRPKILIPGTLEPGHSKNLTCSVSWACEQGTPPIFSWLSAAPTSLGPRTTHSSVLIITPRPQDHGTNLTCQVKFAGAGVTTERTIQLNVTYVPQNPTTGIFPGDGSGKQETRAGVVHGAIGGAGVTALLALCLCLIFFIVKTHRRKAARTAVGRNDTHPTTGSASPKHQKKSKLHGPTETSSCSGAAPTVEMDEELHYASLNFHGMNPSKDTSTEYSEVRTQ
# Description: (§1) The purified antibodies were assessed for binding to stably transfected HEK293F cells expressing human CD33 or cyno CD33 (generation described above) along with the parental HEK293F as negative control. Cells were harvested from tissue culture flasks using non-enzymatic dissociation buffer (Thermo Scientific). The flasks were rinsed twice with PBS and dissociation buffer was added to the flask, and the flask was incubated for 10 minutes at 37° C. until the cells became non-adherent. The cells were centrifuged at 300 g for 5 minutes and resuspended at 1.0×10⁶ cells/ml in staining buffer (Becton Dickinson; Franklin Lakes, NJ). 50,000 cells/well of each cell type was plated in 50 μl of staining buffer in round bottom plates (Becton Dickinson). […] 100 μl staining buffer was added to all wells of each plate, the plates were spun at 300 g for 5 min, the buffer was removed, 200 μl staining buffer was added to all wells of each plate, the plates were spun at 300 g for 5 min, and the buffer was removed. 50 μl of 2 μg/ml of Goat-anti-human Fc AF647 secondary antibody (Jackson Immunoresearch; West Grove, PA) was added to all wells of the plates, and the plates were incubated for 30 min at 4° C. 100 μl staining buffer was added to all wells of the plates, the plates were spun at 300 g for 5 min, and the buffer was removed. 200 μl running buffer (running buffer is Staining buffer, 1 mM EDTA, 0.1% Pluronic Acid) was added to all wells of the plates, the plates were spun at 300 g for 5 min, and the buffer was removed. 30 μl running buffer containing Sytox Green live/dead dye (ThermoFisher) was added to all wells with cells and the plates were read on an iQue IntelliCyt flow cytometer. Cells were gated on forward vs. side scatter to eliminate debris, then on singlets and then on live cells which excluded the Sytox stain. Antibody binding was assessed by the mean fluorescence intensity in the AF647 channel.
# (§2) The OmniMouse panel (8 mAbs total) was generated separately and characterized further for binding to cells.
# Cyno CD33 full length = molecular target: T2, Cyno CD33 full length (cynomolgus monkey); experiment: flow cytometry on HEK293F cells expressing cyno CD33
# T2 construct: also called cyCD33
# Description: as §1, §2
# Cyno CD33 ECD-HSA [1] = molecular target: T3, Cyno CD33 ECD-HSA (cynomolgus monkey); experiment: SPRi off-rate screen (IBIS MX96), mAb captured by anti-human Fc; column head prints Cyno CD33 binding KD
# T3 construct: Cyno CD33 extracellular domain fused to monomeric human serum albumin and a six-histidine tag; also called C33W1
# Description: (§3) To begin assessing the biophysical binding properties of the purified mAbs an off-rate screen was performed. 76 OMNIRat anti-CD33 mAbs were tested for binding to recombinant human CD33 ECD-HSA (C33W2) and cyno CD33 ECD-HSA (C33W1) proteins (Janssen production) and the off-rate was measured by IBIS MX96 SPRi array platform (Carterra; Newton, PA). […] The sensor chip was transferred to the Continuous Flow Microspotter (CFM) unit to capture each anti-CD33 mAb at 10 μg/ml for 10 minutes. Binding was measured on IBIS SPRi by single cycle kinetics without regeneration. […] The raw binding data (.trix file format) were referenced and aligned using SprintX software (Wasatch, Ver 1.9.3.2), then exported (.ibmx file format) to Scrubber software (Ver. 2.0) for 1:1 binding kinetic analyses (Wasatch, version 2.0.0.33) to extract the koff results.
# [2] = molecular target: T4, Cyno CD33 full length, expressed on HEK293F cells (cynomolgus monkey); experiment: flow cytometry, HEK293F cells expressing cyno CD33
# T4 construct: HEK293F cells transduced with lentivirus containing full length cyno CD33 (Genbank XP_005590138.1); also called cyCD33
# Description: as §1, with “OMNIRat antibodies identified via immunization, v-region cloned and subsequently expressed and purified were characterized further for binding to CD33 expressing cells and binding to recombinant antigens. The purified” for “The purified”
# [3] = molecular target: T5, Human CD33 full length, expressed on HEK293F cells (human, UniProt P20138 18-364); experiment: flow cytometry, HEK293F cells expressing human CD33
# T5 construct: HEK293F cells transduced with lentivirus containing full length human CD33; also called huCD33
# T5 sequence (P20138 18-364 limits assumed): as above
# Description: as §1, with “OMNIRat antibodies identified via immunization, v-region cloned and subsequently expressed and purified were characterized further for binding to CD33 expressing cells and binding to recombinant antigens. The purified” for “The purified”
# Cyno CD33 ECD-HSA [4] = molecular target: T3, Cyno CD33 ECD-HSA; experiment: ProteOn SPR, mAb captured by anti-human Fc, 1:1 Langmuir fit
# Description: (§4) The panel of mAbs was then further characterized for full affinity analysis as well as epitope binning. The binding of anti-CD33 mAbs to recombinant human CD33 ECD-HSA (C33W2) and cyno CD33 ECD-HSA (C33W1) was measured by ProteOn SPR (Bio-Rad). […] Different mAbs were captured on the anti-human Fc IgG surface at 0.25 or 0.5 μg/ml (160-300 RU) in vertical ligand orientation, with the 6th ligand channel as no ligand surface control. Human and cyno CD33-HSA proteins at 0.3 μM concentration in 3-fold dilution series of 5 concentrations flew in as analyte to bind to captured mAbs in the horizontal orientation. A buffer sample was also injected in the 6th channel to monitor the dissociation of captured mAb and baseline stability. […] The raw biding data were processed by double referencing after subtracting the response data from: 1) the inter-spot to correct for the non-specific interactions between the Ag and the empty chip surface; 2) the buffer channel to correct for baseline drifting due to the dissociation of captured mAb surface over time. The processed data at all antigen concentrations for each mAb were globally fit to a 1:1 simple Langmuir binding model to extract estimates of the kinetic (kₒₙ, koff) and affinity (Kd) constants.
# Human CD33 ECD-HSA [5] = molecular target: Human CD33 ECD-HSA (human); experiment: SPRi off-rate screen (IBIS MX96), mAb captured by anti-human Fc; column head prints KD
# Chain of Human CD33 ECD-HSA (human) (chain, as listed by the source): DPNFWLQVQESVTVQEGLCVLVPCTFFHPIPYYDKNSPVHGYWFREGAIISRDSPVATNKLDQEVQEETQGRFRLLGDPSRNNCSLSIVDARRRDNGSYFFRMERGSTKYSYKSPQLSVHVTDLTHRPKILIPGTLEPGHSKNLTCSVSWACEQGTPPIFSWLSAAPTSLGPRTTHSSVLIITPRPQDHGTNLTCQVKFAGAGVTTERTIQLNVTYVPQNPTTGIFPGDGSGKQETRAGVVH
# Description: as §3
# Human CD33 ECD-HSA [6] = molecular target: Human CD33 ECD-HSA (human); experiment: ProteOn SPR, mAb captured by anti-human Fc, 1:1 Langmuir fit
# Description: as §4
Binder,koff (Cyno CD33 ECD-HSA [1]) [s⁻¹],MFI at 0 nM mAb (background) [2] [MFI],MFI at 0.6 nM mAb [2] [MFI],MFI at 6 nM mAb [2] [MFI],MFI at 60 nM mAb [2] [MFI],MFI at 0 nM mAb (background) [3] [MFI],MFI at 0.6 nM mAb [3] [MFI],MFI at 6 nM mAb [3] [MFI],MFI at 60 nM mAb [3] [MFI],Kd (Cyno CD33 ECD-HSA [4]) [pM],koff (Cyno CD33 ECD-HSA [4]) [s⁻¹],kon (Cyno CD33 ECD-HSA [4]) [M⁻¹ s⁻¹],koff (Human CD33 ECD-HSA [5]) [s⁻¹],further results
B1,–,–,–,–,–,–,–,–,–,–,–,–,–,MFI at 0 nM (background) (Human CD33 full length): 191 MFI; MFI at 0.6 nM (Human CD33 full length): 154 MFI; MFI at 6 nM (Human CD33 full length): 170 MFI; MFI at 60 nM (Human CD33 full length): 176 MFI; MFI at 0 nM (background) (Cyno CD33 full length): 124 MFI; MFI at 0.6 nM (Cyno CD33 full length): 116 MFI; MFI at 6 nM (Cyno CD33 full length): 135 MFI; MFI at 60 nM (Cyno CD33 full length): 180 MFI
B2,–,–,–,–,–,–,–,–,–,–,–,–,–,MFI at 0 nM (background) (Human CD33 full length): 155 MFI; MFI at 0.6 nM (Human CD33 full length): 151 MFI; MFI at 6 nM (Human CD33 full length): 183 MFI; MFI at 60 nM (Human CD33 full length): 214 MFI; MFI at 0 nM (background) (Cyno CD33 full length): 176 MFI; MFI at 0.6 nM (Cyno CD33 full length): 117 MFI; MFI at 6 nM (Cyno CD33 full length): 135 MFI; MFI at 60 nM (Cyno CD33 full length): 202 MFI
B3,0.000135,28800,38100,43000,50500,61.3,3770,27500,148000,484,0.000637,1.32e+06,0.0248,–
B4,4.65e-05,113,23300,34200,47300,–,–,–,–,760,0.000201,265000,0.00811,–
B5,0.000135,55.1,36800,47800,50300,86.5,161000,340000,375000,212,7.01e-05,331000,0.00444,–
B6,0.000389,90.1,43900,43900,50400,94.8,274000,481000,393000,–,–,–,0.000825,–
B7,0.000819,86.3,11600,20100,37300,55.2,188000,476000,476000,–,–,–,0.000228,Kd (Human CD33 ECD-HSA [6]): 1920 pM; koff (Human CD33 ECD-HSA [6]): 0.000436 s⁻¹; kon (Human CD33 ECD-HSA [6]): 226000 M⁻¹ s⁻¹
